The target of test [1] is T1, phospho-MOB1(K104E/K105E), full length, recombinant (human, UniProt Q9H8S9 1-216, K104E | K105E, phosphorylated in vitro by MST2 (residues 2-308); the paper names Thr12 and Thr35 as the MST1/2 phosphorylation sites of MOB1).
T1 construct: human MOB1A, full length; source: E. coli, purified (Ni-NTA), then phosphorylated in vitro by MST2 (2-308)
T1 sequence (looked up): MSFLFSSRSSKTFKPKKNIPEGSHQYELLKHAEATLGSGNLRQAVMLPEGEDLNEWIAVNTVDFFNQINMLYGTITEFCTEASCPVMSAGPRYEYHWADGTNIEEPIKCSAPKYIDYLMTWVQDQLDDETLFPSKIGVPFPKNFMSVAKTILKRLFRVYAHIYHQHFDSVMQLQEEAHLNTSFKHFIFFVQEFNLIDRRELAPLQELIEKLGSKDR
Briefly: SEC; purified full-length MOB1 proteins incubated with NDR2 (25-88), LATS1 (618-697) or MST2 (2-392) at 4 °C for 20 min in assembly buffer (20 mM Tris pH 8.0, 200 mM NaCl, 5 mM DTT); HiLoad 16/60 Superdex 200; fractions by SDS-PAGE and Coomassie; for LATS1 MOB1A was first phosphorylated by MST2 (2-308). The following applies: both partners purified. Background: In gel filtration, larger molecules generally elute earlier.

Test [2] addresses T2, human MST2 (residues 2-392) (human, UniProt Q13188 2-392).
T2 construct: human MST2, residues 2-392; also called MST2 (2-392); source: E. coli BL21(DE3), purified (Ni-NTA)
T2 sequence (looked up): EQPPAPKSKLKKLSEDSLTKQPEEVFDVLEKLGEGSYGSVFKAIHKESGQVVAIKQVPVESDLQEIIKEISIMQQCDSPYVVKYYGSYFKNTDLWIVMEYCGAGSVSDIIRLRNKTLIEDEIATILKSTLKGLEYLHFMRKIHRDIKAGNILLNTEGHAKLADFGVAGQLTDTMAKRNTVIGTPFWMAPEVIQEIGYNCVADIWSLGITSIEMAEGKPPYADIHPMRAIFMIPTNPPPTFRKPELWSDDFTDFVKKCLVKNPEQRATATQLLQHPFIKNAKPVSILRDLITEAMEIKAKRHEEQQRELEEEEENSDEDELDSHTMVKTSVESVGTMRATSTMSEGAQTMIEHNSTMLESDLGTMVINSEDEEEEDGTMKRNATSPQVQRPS
The test is described as above. The conditions noted are these: both partners purified.

The results in this text go back to article PMC5612953, “Stable MOB1 interaction with Hippo/MST is not essential for development and tissue growth control” (Nature Communications, 2017).

B1: human LATS1 (residues 618-697) (domain or fragment, UniProt O95835 618-697, looked up)
chain: RKNKKDEERRESRIQSYSPQAFKFFMEQHVENVLKSHQQRLHRKKQLENEMMRVGLSQDAQDQMRKMLCQKESNYIRLKR
notes: human LATS1, residues 618-697; also called LATS1 (618-697); source: E. coli BL21(DE3), purified (Ni-NTA)
Turning to B1, in test [1], the binding result is given as “binds”.

B2: recombinant full-length MOB1A(D63V) (natural protein, human, UniProt Q9H8S9 1-216, looked up)
chain: MSFLFSSRSSKTFKPKKNIPEGSHQYELLKHAEATLGSGNLRQAVMLPEGEDLNEWIAVNTVVFFNQINMLYGTITEFCTEASCPVMSAGPRYEYHWADGTNIKKPIKCSAPKYIDYLMTWVQDQLDDETLFPSKIGVPFPKNFMSVAKTILKRLFRVYAHIYHQHFDSVMQLQEEAHLNTSFKHFIFFVQEFNLIDRRELAPLQELIEKLGSKDR
notes: human MOB1A, full length; also called MOB1(D63V); source: E. coli, purified as MOB1A (33-216) (Ni-NTA)
Turning to B2, the binding result in test [2] is recorded as “binds”.
